{"source": "patent US20250066490A1", "about": "“ANTI-CD70 ANTIBODIES, CONJUGATES THEREOF AND METHODS OF USING THE SAME” (ProfoundBio US Co., priority 2021, published 2025)", "molecules": {"B1": {"name": "2E7: anti-CD70 antibody clone, VH SEQ 7 and VL SEQ 8; tested as scFv and full human IgG1/kappa (antibody, V domains shown)", "VH": "QVQLQESGPGLVKPSETLSLTCTVSGGSVSSDYYYWSWIRQPPGKGLEWLGYIYYSGSTNYNPSLKSRVTISVDTSKNQFSLKLRSVTTADTAVYYCARGDGDFLGVCFDYWGQGTLVTVSS", "VL": "EIVLTQSPATLSLSPGERATLSCRASQSVSSYLAWYQQKPGQAPRLLIFDASNRATGIPARFSGSGSGTDFTLTISSLEPEDFAVYYCQQRSNWPLTFGGGTKVEIK", "modifications": "Synthetic 2E7 VH amino acid sequence; Synthetic 2E7 VL amino acid sequence", "notes": "tested as scFv and full human IgG1/kappa"}}, "key": {"[1]": {"tested_on": "cynomolgus CD70 recombinant protein", "test": "Antibody binding ELISA, cynomolgus CD70", "details": "full IgG, FIG. 3", "procedure": "The binding specificity of the CD70 antibodies was tested by ELISA according to a standard protocol. Briefly, 96-well micro-plates were coated with 2 μg/ml of human or cynomolgus CD70 recombinant protein in PBS at 100 μl per well and incubated overnight at 4° C. The plates were washed twice with TBS+0.5% Tween20. 200 μL of blocking buffer (2% BSA in PBS) was added to each well, and the plates were incubated at 37° C. for 2 hours. The plates were washed using the wash buffer mentioned above. Serially diluted antibodies were added to the ELISA plates using 100 μl per well, and the plates were incubated for 1 hour at room temperature. Then plates were washed 3 times. HRP conjugated anti-human Fc antibody solution (Sigma, I18885-2ML, diluted with blocking buffer) was added to the plates using 100 μl per well. The plates were incubated at room temperature for 1 hour and then washed 3 times. Then the TMB solution was added to plates using 100 μl per well and the plates were placed at RT for 5-15 mins. Then the stop solution (2M H2SO4) was added using 50 μl per well. The absorbance was measured at A450 and A630."}, "[2]": {"tested_on": "CD70-negative cell line, MCF-7", "test": "2E7 binding by flow cytometry, MCF-7", "details": "FIG. 12", "procedure": "Binding activity of 2E7 or the isotype control with a target cell line (Raji) or a cell line (MCF-7) that has negligible level of CD70 expression were evaluated by flow cytometry (Beckman, Cytoflex). 3×10^5 cells per well were seeded on a 96-well V-bottomed plate and incubated with 100 μl of 2E7 in serial dilutions. After 30 min incubation at 4° C., cells were washed twice with PBS, stained with 100 μl of 1:200 diluted PE-conjugated anti-human Fc in FACS buffer (1×PBS containing 1% BSA), then incubated at 4° C. for 30 min. Cells were finally washed two times with PBS and analyzed by flow cytometric analysis."}}, "data": [{"molecule": "B1", "values": [{"measurement": "cross binding activity to the cyno-antigen", "setting": "[1]", "result": "better cross binding activity to the cyno-antigen than antibody 69A7"}, {"measurement": "binding to MCF-7", "setting": "[2]", "result": "no binding"}]}]}
